The source of these data is patent US20130216513A1 (Biogen, published 2013).

The target of this experiment is T1, GPIIbIIIa on activated human platelets (human, UniProt P08514 32-1039; P05106 27-788).
T1 construct: whole, on cells; also called active form of GPIIbIIIa
Description: FACS on activated human platelets, FITC-labeled FVII antibody; reference FVIIaFc (FVII-011); FIG. 44C.

B1: FVII-094 (other)
chain 1: ANAFLEELRPGSLERECKEEQCSFEEAREIFKDAERTKLFWISYSDGDQCASSPCQNGGSCKDQLQSYICFCLPAFEGRNCETHKDDQLICVNENGGCEQYCSDHTGTKRSCRCHEGYSLLADGVSCTPTVEYPCGKIPILEKRNASKPQGR
chain 2: IVGGKVCPKGECPWQVLLLVNGAQLCGGTLINTIWVVSAAHCFDKIKNWRNLIAVLGEHDLSEHDGDEQSRRVAQVIIPSTYVPGTTNHDIALLRLHQPVVLTDHVVPLCLPERTFSERTLAFVRFSLVSGWGQLLDRGATALELMVLNVPRLMTQDCLQQSRKVGDSPNITEYMFCAGYSDGSKDSCKGDSGGPHATHYRGTWYLTGIVSWGQGCATVGHFGVYTRVSQYIEWLQKLMRSEPRPGVLLRAPFPDIGGGGSGGGGSGGGGSGGGGSGGGGSGGGGSAQVQLQESGGGLVQPGGSLRLSCAASGFMFSRYAMSWVRQAPGKGPEWVSGISGSGGSTYYADSVKGRFTVSRDNSKNTLYLQMNSLRAEDTAVYYCARGATYTSRSDVPDQTSFDYWGQGTLVTVSSGSASAPKLEEGEFSEARVSELTQDPAVSVALGQTVRITCQGDSLRNFYASWYQQKPGQAPTLVIYGLSKRPSGIPDRFSASSSGNTASLTITGAQAEDEADYYCLLYYGGGQQGVFGGGTKLTVLRQPKAAPSVTLFPPSSAA
notes: SCE5 at the C-terminus of FVIIa; no Fc; also called pSYN-FVII-094
For the molecule B1, the binding result is “binds”.
